B1: aNCL-CDR3-L VHH (VHH)
VHH: QVQLQESGGGLVQPGGSLRLSCAASGRTFSDHSGYTYTIGWFRQAPGKEREFVARIYWSSGNTYYADSVKGRFAISRDIAKNTVDLTMNNLEPEDTAVYYCAASGGGSPQRRSARLSASGGGSWGQGTQVTVSS
notes: The entry holds leader peptide, His tag and HA tag; also called CDR3-grafted VHH with SGGGS linkers
B2: aNCL-CDR3 VHH (VHH)
VHH: QVQLQESGGGLVQPGGSLRLSCAASGRTFSDHSGYTYTIGWFRQAPGKEREFVARIYWSSGNTYYADSVKGRFAISRDIAKNTVDLTMNNLEPEDTAVYYCAAPQRRSARLSAWGQGTQVTVSS
notes: The entry holds leader peptide, His tag and HA tag; also called CDR3-grafted VHH; anti-nucleolin VHH
B3: aNCL-CDR1-L VHH (VHH)
VHH: QVQLQESGGGLVQPGGSLRLSCAASSGGGSPQRRSARLSASGGGSWFRQAPGKEREFVARIYWSSGNTYYADSVKGRFAISRDIAKNTVDLTMNNLEPEDTAVYYCAARDGIPTSRSVESYNYWGQGTQVTVSS
notes: The entry holds leader peptide, His tag and HA tag; also called aNCL-CDRl-L; CDR1-grafted VHH with SGGGS linkers
B4: aNCL-CDR1 VHH (VHH)
VHH: QVQLQESGGGLVQPGGSLRLSCAASPQRRSARLSAWFRQAPGKEREFVARIYWSSGNTYYADSVKGRFAISRDIAKNTVDLTMNNLEPEDTAVYYCAARDGIPTSRSVESYNYWGQGTQVTVSS
notes: The entry is expected to hold leader peptide, His tag and HA tag like the others; also called aNCL-CDRl; a-NCL-CDRl VHH

Biological target: T1, human recombinant TNF-a (human, UniProt P01375 77-233)
T1 construct: Coated at 200 ng per well in the ELISA; also called human TNF-a
T1 sequence (P01375 77-233 limits assumed): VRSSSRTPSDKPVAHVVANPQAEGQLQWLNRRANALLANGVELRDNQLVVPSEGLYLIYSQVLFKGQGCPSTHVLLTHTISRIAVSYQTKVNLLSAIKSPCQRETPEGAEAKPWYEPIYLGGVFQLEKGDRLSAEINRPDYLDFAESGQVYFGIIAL
Assay: ELISA, 200 ng human TNF-a coated, 100 pmol VHH, anti-HA-peroxidase detection

| Binder | percent lower binding to TNF-a than the parental VHH [%] |
| --- | --- |
| B1 | ~40 |
| B2 | ~40 |
| B3 | ~40 |
| B4 | ~40 |

Biological target: T2, human recombinant nucleolin (human, UniProt P19338 1-710, limits assumed)
T2 construct: also called human nucleolin
T2 sequence (P19338 whole entry, form in doubt): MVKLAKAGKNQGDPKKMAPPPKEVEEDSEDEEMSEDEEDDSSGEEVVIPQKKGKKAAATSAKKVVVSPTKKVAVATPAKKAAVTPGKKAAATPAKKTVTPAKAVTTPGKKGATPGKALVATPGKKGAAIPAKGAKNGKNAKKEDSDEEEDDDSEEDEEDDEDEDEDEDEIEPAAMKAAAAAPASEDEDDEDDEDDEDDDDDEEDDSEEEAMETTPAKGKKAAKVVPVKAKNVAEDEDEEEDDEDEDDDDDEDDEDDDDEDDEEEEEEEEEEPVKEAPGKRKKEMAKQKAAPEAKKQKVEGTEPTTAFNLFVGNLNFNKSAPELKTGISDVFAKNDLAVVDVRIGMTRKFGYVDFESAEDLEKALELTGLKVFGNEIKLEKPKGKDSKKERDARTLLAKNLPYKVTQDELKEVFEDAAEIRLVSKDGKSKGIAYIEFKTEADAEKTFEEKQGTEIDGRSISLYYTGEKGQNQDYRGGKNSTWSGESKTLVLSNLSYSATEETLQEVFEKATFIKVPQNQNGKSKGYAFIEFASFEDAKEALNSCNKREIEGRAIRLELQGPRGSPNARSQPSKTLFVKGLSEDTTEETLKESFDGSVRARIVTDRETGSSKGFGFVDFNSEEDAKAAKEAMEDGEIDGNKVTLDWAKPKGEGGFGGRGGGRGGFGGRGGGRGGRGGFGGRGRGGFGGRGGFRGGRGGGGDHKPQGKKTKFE
Assay: ELISA, 100 ng human nucleolin coated, 100 pmol VHH, anti-HA-peroxidase detection

| Binder | fold increased nucleolin binding relative to the parental VHH [fold] |
| --- | --- |
| B1 | 3 |
| B2 | 3 |
| B3 | 2 |
| B4 | 2 |

Source: patent WO2019016784A1 (dated 2019)
